These are literature values, as cited in PMC10558290.

Like-named read-outs stand apart in the source and are kept apart here.

Data set [1] has as its target G-actin (Saccharomyces cerevisiae) (UniProt P60010).
The target is the same in data set [2]. The source holds these as a separate data set.

Profilin Pfy1, sequence (P07274 whole entry): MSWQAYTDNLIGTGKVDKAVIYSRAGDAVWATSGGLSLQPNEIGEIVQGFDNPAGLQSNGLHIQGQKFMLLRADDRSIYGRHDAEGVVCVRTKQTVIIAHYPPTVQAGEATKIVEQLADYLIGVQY
Srv2, sequence (P17555 whole entry): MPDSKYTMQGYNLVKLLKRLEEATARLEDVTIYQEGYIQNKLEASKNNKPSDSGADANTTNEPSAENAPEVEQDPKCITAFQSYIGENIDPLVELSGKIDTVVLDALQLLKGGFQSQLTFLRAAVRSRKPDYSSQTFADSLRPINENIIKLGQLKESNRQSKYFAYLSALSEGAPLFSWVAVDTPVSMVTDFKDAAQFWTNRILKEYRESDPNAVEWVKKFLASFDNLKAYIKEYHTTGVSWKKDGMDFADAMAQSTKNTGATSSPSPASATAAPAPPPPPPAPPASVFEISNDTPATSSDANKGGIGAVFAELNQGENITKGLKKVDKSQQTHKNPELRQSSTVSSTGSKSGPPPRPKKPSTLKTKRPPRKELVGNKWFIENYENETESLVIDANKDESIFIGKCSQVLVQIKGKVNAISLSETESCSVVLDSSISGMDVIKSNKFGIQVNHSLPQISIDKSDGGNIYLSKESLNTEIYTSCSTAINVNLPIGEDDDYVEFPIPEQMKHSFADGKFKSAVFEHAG

For the substance Profilin Pfy1 (from UniProt P07274), the equilibrium dissociation constant (Kd) in data set [1] is 100 nM.
On to Srv2 (from UniProt P17555), for which the dissociation constant Kd in data set [2] is 18 nM.

As a reminder, the Kd is the concentration at which binding is half-saturated.
